# In paper PMC10786891, “Massively parallel profiling of RNA-targeting CRISPR-Cas13d”:
# Numbering of substitutions follows the chain as printed. Names and notes keep the numbering of the source.
# B1: target 1 A1C,U11A (mixed)
# RNA 1: CACCCGUGCAAAAAUGCAGGGGUCUAAAACUGAGCGGAUAACCUCUCUAUGG
# RNA 2: GGGAAUGGAUCCACAUCUACGAAUUCGUACCAUAGAGAGGAUAUCCGCUCCCCGAGAUCGGAAGAGCACACGU
# B2: target 1 C4A,U8A (mixed)
# RNA 1: B1 RNA 1
# RNA 2: B1 RNA 2 with A41U, U44A, C48A, C51A
# B3: target 1 insC 3' of 19,insA 3' of 17 (mixed)
# RNA 1: B1 RNA 1
# RNA 2: GGGAAUGGAUCCACAUCUACGAAUUCGUACCAUCAGAAGAGGUUAUCCGCUCACCGAGAUCGGAAGAGCACACGU
# B4: target 1 U3G,U10C (mixed)
# RNA 1: B1 RNA 1
# RNA 2: B1 RNA 2 with A41U, U42C, U49G, C51A
# B5: target 1 insC 3' of 22,insU 3' of 17 (mixed)
# RNA 1: B1 RNA 1
# RNA 2: B3 RNA 2 with A32C, U33A, C34U, A37U
# B6: target 1 insC 3' of 22,insA 3' of 22 (mixed)
# RNA 1: B1 RNA 1
# RNA 2: B3 RNA 2 with U33C, C34A, A35U, G36A, A37G
# B7: target 1 A9C,U11A (mixed)
# RNA 1: B1 RNA 1
# RNA 2: B1 RNA 2 with A43C, C51A
# B8: target 1 insU 3' of 13,insC 3' of 9 (mixed)
# RNA 1: B1 RNA 1
# RNA 2: B3 RNA 2 with C34A, A35G, G36A, A37G, A40U, G42U, U44A, A45C
# B9: target 1 insC 3' of 22,insC 3' of 8 (mixed)
# RNA 1: B1 RNA 1
# RNA 2: GGGAAUGGAUCCACAUCUACGAAUUCGUACCCAUAGAGAGGUUAUCCCGCUCACCGAGAUCGGAAGAGCACACGU
# B10: target 1 insG 3' of 9,insG 3' of 7 (mixed)
# RNA 1: B1 RNA 1
# RNA 2: GGGAAUGGAUCCACAUCUACGAAUUCGUACCAUAGAGAGGUUAGUCGCGCUCACCGAGAUCGGAAGAGCACACGU
# B11: target 1 insA 3' of 12,insA 3' of 5 (mixed)
# RNA 1: B1 RNA 1
# RNA 2: B10 RNA 2 with U41A, A43U, G44A, G47C, C48G, G49A
# B12: target 1 C7G,U8C (mixed)
# RNA 1: B1 RNA 1
# RNA 2: B1 RNA 2 with A41U, U44C, C45G, C51A
# B13: target 1 insG 3' of 21,insA 3' of 13 (mixed)
# RNA 1: B1 RNA 1
# RNA 2: B9 RNA 2 with C32G, G41A, U42G, A44U, U45A, C46U
# B14: target 1 insC 3' of 15,insG 3' of 8 (mixed)
# RNA 1: B1 RNA 1
# RNA 2: B10 RNA 2 with A38C, G39A, U41G, A43U, G44A, C46G, G47C
# B15: target 1 insA 3' of 13,insA 3' of 13 (mixed)
# RNA 1: B1 RNA 1
# RNA 2: B3 RNA 2 with C34A, A35G, G36A, A37G, G41A
# B16: target 1 G12U,G13U (mixed)
# RNA 1: B1 RNA 1
# RNA 2: B1 RNA 2 with G39U, G40U, A41U, C51A
# B17: target 1 insU 3' of 17,insC 3' of 3 (mixed)
# RNA 1: B1 RNA 1
# RNA 2: B9 RNA 2 with C32A, A33U, U34A, A35G, G36U, C48G, G49C, C50U, U51C
# B18: target 1 insU 3' of 14,insU 3' of 2 (mixed)
# RNA 1: B1 RNA 1
# RNA 2: GGGAAUGGAUCCACAUCUACGAAUUCGUACCAUAGAGAUGGUUAUCCGCUCUACCGAGAUCGGAAGAGCACACGU
# B19: target 1 A18U,C22U (mixed)
# RNA 1: B1 RNA 1
# RNA 2: B1 RNA 2 with C30U, A34U, A41U, C51A
# B20: target 1 insG 3' of 16,insU 3' of 14 (mixed)
# RNA 1: B1 RNA 1
# RNA 2: B3 RNA 2 with C34A, A35G, G36A, A37G, A38G, G39A, A40U
# B21: target 1 insA 3' of 10,insC 3' of 10 (mixed)
# RNA 1: B1 RNA 1
# RNA 2: B10 RNA 2 with G44C, U45A, C46U, G47C
# B22: target 1 insU 3' of 13,insG 3' of 2 (mixed)
# RNA 1: B1 RNA 1
# RNA 2: B18 RNA 2 with U39G, G40U, U52G
# B23: target 1 U3A,G5A (mixed)
# RNA 1: B1 RNA 1
# RNA 2: B1 RNA 2 with A41U, G47A, U49A, C51A
# B24: target 1 G5U,G13A (mixed)
# RNA 1: B1 RNA 1
# RNA 2: B1 RNA 2 with G39A, A41U, G47U, C51A
# B25: target 1 insA 3' of 8,insG 3' of 3 (mixed)
# RNA 1: B1 RNA 1
# RNA 2: B10 RNA 2 with G44U, U45A, G47C, C48G, G49C, C50U, U51G
# B26: target 1 U8A,C22G (mixed)
# RNA 1: B1 RNA 1
# RNA 2: B1 RNA 2 with C30G, A41U, U44A, C51A
# B27: target 1 G12A,G13U (mixed)
# RNA 1: B1 RNA 1
# RNA 2: B1 RNA 2 with G39U, G40A, A41U, C51A
# B28: target 1 U10A,C22A (mixed)
# RNA 1: B1 RNA 1
# RNA 2: B1 RNA 2 with C30A, A41U, U42A, C51A
# B29: target 1 insC 3' of 17,insA 3' of 4 (mixed)
# RNA 1: B1 RNA 1
# RNA 2: B18 RNA 2 with A36C, G37A, A38G, U39A, U50A, C51U, U52C
# B30: target 1 C2A (mixed)
# RNA 1: B1 RNA 1
# RNA 2: B1 RNA 2 with A41U, C50A, C51A
# B31: target 1 C2A,U19C (mixed)
# RNA 1: B1 RNA 1
# RNA 2: B1 RNA 2 with U33C, A41U, C50A, C51A
# B32: target 1 A1C,C2A (mixed)
# RNA 1: B1 RNA 1
# RNA 2: B1 RNA 2 with A41U, C50A
# B33: target 1 insG 3' of 6,insU 3' of 2 (mixed)
# RNA 1: B1 RNA 1
# RNA 2: B18 RNA 2 with U39G, G41U, U43A, A44U, U45C, C47G
# B34: target 1 insU 3' of 9,insA 3' of 4 (mixed)
# RNA 1: B1 RNA 1
# RNA 2: B10 RNA 2 with G44U, G47C, C48G, G49C, C50A
# Target: T1, EsCas13d, nuclease-dead (Eubacterium siraeum, UniProt B0MS50, R295A;H300A;R849A;H854A)
# T1 sequence: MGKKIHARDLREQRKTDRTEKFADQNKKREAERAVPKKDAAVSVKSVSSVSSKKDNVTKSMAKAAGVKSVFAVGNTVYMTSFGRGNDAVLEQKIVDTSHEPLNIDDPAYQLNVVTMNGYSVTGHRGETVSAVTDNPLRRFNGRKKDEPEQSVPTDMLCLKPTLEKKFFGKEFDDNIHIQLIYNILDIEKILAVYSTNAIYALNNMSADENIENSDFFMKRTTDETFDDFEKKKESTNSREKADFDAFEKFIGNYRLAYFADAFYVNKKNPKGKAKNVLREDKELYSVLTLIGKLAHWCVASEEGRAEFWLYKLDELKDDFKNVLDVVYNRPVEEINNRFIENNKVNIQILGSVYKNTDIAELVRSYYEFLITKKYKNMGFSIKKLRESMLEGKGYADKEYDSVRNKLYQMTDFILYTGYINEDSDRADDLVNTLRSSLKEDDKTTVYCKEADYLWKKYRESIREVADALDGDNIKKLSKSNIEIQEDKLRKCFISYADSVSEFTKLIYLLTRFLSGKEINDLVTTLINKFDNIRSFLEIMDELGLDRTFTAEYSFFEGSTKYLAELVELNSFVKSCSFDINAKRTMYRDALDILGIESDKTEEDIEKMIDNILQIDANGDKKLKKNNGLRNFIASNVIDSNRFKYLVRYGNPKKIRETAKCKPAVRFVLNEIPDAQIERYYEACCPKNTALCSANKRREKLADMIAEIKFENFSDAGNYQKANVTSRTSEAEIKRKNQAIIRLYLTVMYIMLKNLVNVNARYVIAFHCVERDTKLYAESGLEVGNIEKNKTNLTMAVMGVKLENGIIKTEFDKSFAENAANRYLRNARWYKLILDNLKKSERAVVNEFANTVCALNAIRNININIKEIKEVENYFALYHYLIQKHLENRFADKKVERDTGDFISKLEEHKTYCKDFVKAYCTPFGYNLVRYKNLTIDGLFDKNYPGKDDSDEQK
# Experiment: crRNA (strand 1, pre-loaded); Mg2+; 40 mM Tris-HCl pH 7.5, 150 mM NaCl, 6 mM MgCl2, 1 mM DTT, 0.1% Tween-20, 0.2 mg/ml BSA; 25 C; 10 min per concentration, then washed
# Conditions: tags: His6-TwinStrep-SUMO cleaved; N-terminal SNAP kept (SNAP-Surface 488); label: 3' end held by stalled T7 RNA polymerase
row,Binder,Kd [nM]
1,B1,44 ± 10
2,B2,25.3 ± 2.1
3,B3,49 ± 7
4,B4,14 ± 0.6
5,B5,25.2 ± 2.7
6,B6,10 ± 0.9
7,B7,59 ± 13
8,B8,18.8 ± 2.4
9,B9,18 ± 1.8
10,B10,10.7 ± 0.4
11,B11,17.4 ± 1.6
12,B12,10.7 ± 0.4
13,B13,44 ± 5
14,B14,23.3 ± 2.2
15,B15,7.9 ± 0.4
16,B16,7.2 ± 0.5
17,B17,29 ± 5

row,Binder,Kd [nM]
1,B18,57 ± 8
2,B19,74 ± 10
3,B20,25.4 ± 2.4
4,B21,12.9 ± 1.3
5,B22,21 ± 4
6,B23,53 ± 8
7,B24,11.5 ± 0.5
8,B25,10 ± 0.7
9,B26,68 ± 13
10,B27,14.6 ± 1.4
11,B28,12.5 ± 1.2
12,B29,28.6 ± 2.3
13,B30,9.3 ± 0.9
14,B31,22.1 ± 1.6
15,B32,36 ± 4
16,B33,16.4 ± 0.9
17,B34,8 ± 1
